The source of these data is patent US20070286858A1 (Pfizer, published 2007).

Numbering of substitutions follows the chain as printed.

Assay [1] concerns the target T1, human RAGE-Fc fusion protein (human, UniProt Q15109 23-344).
T1 construct: also called hRAGE-Fc; huRAGE-Fc; not shown: Fc domain of human IgG
Kind of assay: ELISA, coated hRAGE-Fc. The procedure:
Antibodies were purified from hybridoma supernatants using standard procedures. Purified antibodies were evaluated for binding to soluble forms of RAGE with the use of ELISA. […] After washing and blocking with PBS containing 1% BSA and 0.05% Tween-20, 100 ul of sample (samples were in several forms: diluted immune serum, hybridoma supernatants, or purified antibodies, as indicated) was added and incubated for 1 hour at room temperature. The plates were washed with PBS, pH 7.2 and bound anti-RAGE antibodies were detected with the use of peroxidase-conjugated goat, anti-mouse IgG (H+L) (IgG) (Pierce, Rockford, Ill.) followed by incubation with the substrate TMB (BioFX Laboratories Owings Mills, Md. Laboratories). Absorbance values were determined at 450 nm in a spectrophotometer. The concentrations of monoclonal antibodies were determined with the use of peroxidase-labeled goat, anti-mouse IgG (Fcγ) (Pierce Rockford, Ill.) and a standard curve was generated by a purified, isotype-matched mouse IgG.
For orientation: In an ELISA, binding on a coated surface is turned into a signal by an enzyme label.

The next assay addresses T2, human RAGE, full length (human, UniProt Q15109 23-404).
T2 construct: Expressed on 293 or CHO cells, or endogenous in human lung sections; also called hRAGE; cell-surface hRAGE
Kind of assay: FACS, 293 cells infected with human RAGE adenovirus. The procedure:
Human 293 cells were infected with the human and murine RAGE adenovirus. Infected cells were suspended in PBS containing 1% BSA at a density of 4×10⁴ cells/ml. Cells were incubated with 100 ul of sample (diluted immune sera, hybridoma supernatants or purified antibodies) for 30 min at 4° C. After washing, cells were incubated with PE-labeled goat, anti-mouse, IgG, F(ab′)₂ (DAKO Corporation GlostrupDenmark) for 30 min at 4° C. in the dark. Cell-associated fluorescence signals were measured by a FACScan flow cytofluorometer (Becton Dickinson) using 5000 cells per treatment. Propidium iodide was used to identify dead cells, which were excluded from the analysis.

The target in assay [2] is T1, human RAGE-Fc fusion protein. Kind of assay: ELISA of in vitro translated ScFv on coated human RAGE-Fc, anti-Flag detection. The procedure: ELISA plates coated with human RAGE-Fc (5 ug/ml) or BSA (200 ug/ml) in bicarbonate buffer overnight at 4° C., washed with PBS+tween 0.05% and blocked for 1 hour at room temperature with 2% milk powder PBS. Plates were incubated with in vitro translated ScFv for 2 hours at room temp. Plates were blocked and detection was with anti-Flag antibody (1/1000 dilution) followed by rabbit anti-mouse HRP (1/1000 dilution). […] Values for Kd of the ScFv in both formats as determined by BIACORE™ are used to determine the optimum antigen concentrations for selection experiments.

In a further assay the target is T3, BSA (Bos taurus, UniProt P02769).
T3 construct: control antigen in the ScFv ELISA; also called bovine serum albumin
Kind of assay: ELISA of E. coli periplasmic ScFv cross-linked with anti-His antibody, on coated BSA. As for the experimental part: ActRIIb represents a non-binding protein expressed from the same vector as a negative control. ELISA plates were coated with human RAGE-Fc (5 ug/ml) or BSA (200 ug/ml) in bicarbonate buffer overnight at 4 °C, washed with PBS+tween 0.05% and blocked for 1 hour at room temperature with 2% milk powder PBS. Periplasmic preparations of 20 ml E. coli cultures were performed using standard procedures. The final volume of periplasmic preparations of unpurified ScFv antibodies was 1 ml of which 50 ul was pre-incubated with anti-His antibody at 1/1000 dilution for 1 hour at room temperature in a total volume of 100 ul with 2% milk powder PBS. The cross linked periplasmic preparations were added to the ELISA plate and incubated for a further 2 hours at room temperature. The plates were washed 2 times with PBS+0.05% tween and 2 times with PBS and incubated with rabbit anti-mouse HRP at 1/1000 dilution in 2% milk powder PBS. The plates were washed as before and binding was detected using standard TMB reagents. […] Starting Kd values of the ScFv in both formats as determined by BIACORE™ are used to determine the optimum antigen concentrations for affinity selections.

The target of assay [3] is T1, human RAGE-Fc fusion protein. Description: direct binding ELISA, receptor coated at 1 µg/ml, antibody at 20 µg/ml. The procedure:
(§1) These receptors were chosen because they are cell-surface expressed, like RAGE, and their interaction with ligand is similarly dependent on charge. […] ELISA plates were coated overnight with 1 μg/ml of the listed receptor proteins.

Another assay deals with T4, rhVCAM-1 (human, UniProt P19320 25-698).
T4 sequence (looked up): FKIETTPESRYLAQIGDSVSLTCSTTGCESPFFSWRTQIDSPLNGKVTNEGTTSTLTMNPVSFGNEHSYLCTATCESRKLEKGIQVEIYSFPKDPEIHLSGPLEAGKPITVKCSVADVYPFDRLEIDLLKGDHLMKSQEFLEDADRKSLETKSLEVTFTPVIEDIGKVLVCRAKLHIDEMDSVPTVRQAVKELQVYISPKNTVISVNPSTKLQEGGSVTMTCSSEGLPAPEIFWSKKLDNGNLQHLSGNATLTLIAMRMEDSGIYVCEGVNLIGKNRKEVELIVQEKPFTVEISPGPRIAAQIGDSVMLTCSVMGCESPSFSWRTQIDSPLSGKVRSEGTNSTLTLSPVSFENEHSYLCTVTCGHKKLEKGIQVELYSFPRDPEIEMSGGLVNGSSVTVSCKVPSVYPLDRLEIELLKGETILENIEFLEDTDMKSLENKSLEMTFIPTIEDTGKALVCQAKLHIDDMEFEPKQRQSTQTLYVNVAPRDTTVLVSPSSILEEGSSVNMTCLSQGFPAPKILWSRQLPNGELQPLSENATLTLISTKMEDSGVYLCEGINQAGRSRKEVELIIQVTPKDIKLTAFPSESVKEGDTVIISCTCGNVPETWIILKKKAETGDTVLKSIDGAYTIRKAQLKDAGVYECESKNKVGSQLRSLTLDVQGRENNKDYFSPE
The description is as above. As for the experimental part: as §1

A further assay addresses T5, rhICAM-1-Fc (human, UniProt P05362 28-480).
T5 construct: also called rhlCAM-1-Fc; not shown: Fc part not described
Described as above. As for the experimental part: as §1

In assay [4] the target is rhTLR4 (C-terminal His tag) (human, UniProt O00206 24-631). The description is as above. The procedure: as §1
The target in another assay is rhNCAM-1 (human, UniProt P13591-3 20-603, limits assumed). The description is as above. As for the experimental part: as §1
In a further assay the target is T6, rhB7-H1-Fc (human, UniProt Q9NZQ7 19-239).
T6 construct: not shown: Fc part not described
Described as above. The procedure:
as §1

A further assay addresses T7, mLox1-Fc (mouse, UniProt Q9EQ09 60-363).
T7 construct: also called mLoxl-Fc; not shown: Fc part not described
The assay is described as above. The procedure: as §1

The target of another assay is hLox1-Fc (human, UniProt P78380 61-273). The assay is described as above. As for the experimental part: as §1
A further assay addresses T8, baboon RAGE (baboon (Papio cyanocephalus), UniProt Q15109 23-404 (human entry)).
T8 construct: On transfected 293 cells or endogenous in baboon lung sections; also called 293-baboon RAGE; RAGE in baboon lung
T8 chain: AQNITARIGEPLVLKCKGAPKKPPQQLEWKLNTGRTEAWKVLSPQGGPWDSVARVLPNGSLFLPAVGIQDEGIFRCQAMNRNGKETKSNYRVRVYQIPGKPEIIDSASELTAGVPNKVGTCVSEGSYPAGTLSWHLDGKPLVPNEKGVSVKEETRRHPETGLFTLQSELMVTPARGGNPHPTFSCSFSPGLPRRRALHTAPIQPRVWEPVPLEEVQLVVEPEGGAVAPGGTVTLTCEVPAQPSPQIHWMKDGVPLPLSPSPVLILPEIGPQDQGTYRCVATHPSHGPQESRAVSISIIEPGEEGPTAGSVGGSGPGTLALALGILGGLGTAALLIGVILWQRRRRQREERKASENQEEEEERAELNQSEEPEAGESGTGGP
Kind of assay: IHC, septic baboon lung, 1 µg/ml. The procedure: Immunohistochemistry for RAGE lung tissues isolated from baboon, cynomolgus monkey, rabbit or Chinese Hamster Ovary cells over-expressing human RAGE or control CHO cells were performed using standard techniques. RAGE antibodies and rat IgG2b isotype control or mouse isotype control were used at […]. […] Following detection with HRP and Alexa Fluor 594, Alexa Fluor 488 or anti-biotin conjugated with FITC, sections were also stained with 4′-6-Diamidino-2-phenylindole (DAPI).
CHO cells stable transfected with an expression vector that expresses DNA encoding hRAGE is used as a positive control.

The target in assay [5] is T9, soluble human streptavidin-tagged RAGE (human, UniProt Q15109 23-344).
T9 construct: also called hRAGE-SA; human RAGE-strep
Kind of assay: BIACORE capture assay, antibody on CM5 chip, hRAGE-SA 0-100 nM in solution. The procedure:
The assays were performed by coating antibodies onto a CM5 BIA chip with 5000-7000 RU.
On the technique in general: In SPR one partner is held on a chip, and binding of the other changes the refractive index at the surface.

T6 sequence (Q9NZQ7 19-239): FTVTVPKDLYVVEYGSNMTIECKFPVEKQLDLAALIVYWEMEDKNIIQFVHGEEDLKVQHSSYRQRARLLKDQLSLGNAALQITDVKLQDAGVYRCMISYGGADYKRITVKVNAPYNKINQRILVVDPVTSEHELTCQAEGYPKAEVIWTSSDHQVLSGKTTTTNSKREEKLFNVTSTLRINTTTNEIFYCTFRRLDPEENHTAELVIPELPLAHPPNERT
T5 sequence (P05362 28-480): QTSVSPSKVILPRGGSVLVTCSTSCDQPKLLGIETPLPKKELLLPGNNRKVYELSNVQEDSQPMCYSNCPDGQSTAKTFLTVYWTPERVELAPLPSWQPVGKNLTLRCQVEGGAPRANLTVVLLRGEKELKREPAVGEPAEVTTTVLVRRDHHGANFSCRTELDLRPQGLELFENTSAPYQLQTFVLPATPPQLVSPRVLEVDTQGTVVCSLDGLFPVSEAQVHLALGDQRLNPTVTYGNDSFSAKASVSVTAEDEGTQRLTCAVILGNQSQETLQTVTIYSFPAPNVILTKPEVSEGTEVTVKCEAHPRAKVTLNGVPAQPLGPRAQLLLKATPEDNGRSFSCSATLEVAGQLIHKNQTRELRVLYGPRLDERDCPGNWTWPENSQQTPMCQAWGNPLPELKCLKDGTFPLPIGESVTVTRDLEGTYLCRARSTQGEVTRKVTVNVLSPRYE
T7 sequence (Q9EQ09 60-363): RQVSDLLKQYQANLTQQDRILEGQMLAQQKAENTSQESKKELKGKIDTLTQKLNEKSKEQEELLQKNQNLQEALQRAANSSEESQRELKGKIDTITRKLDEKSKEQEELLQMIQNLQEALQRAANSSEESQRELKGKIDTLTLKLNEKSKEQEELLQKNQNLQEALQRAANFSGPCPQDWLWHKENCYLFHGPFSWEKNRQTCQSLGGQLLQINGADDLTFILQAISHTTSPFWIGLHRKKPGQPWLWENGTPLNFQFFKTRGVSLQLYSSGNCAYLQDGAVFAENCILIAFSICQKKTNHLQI
Sequence of rhNCAM-1 (P13591 other isoform, or with tags, fused parts or gaps limits assumed): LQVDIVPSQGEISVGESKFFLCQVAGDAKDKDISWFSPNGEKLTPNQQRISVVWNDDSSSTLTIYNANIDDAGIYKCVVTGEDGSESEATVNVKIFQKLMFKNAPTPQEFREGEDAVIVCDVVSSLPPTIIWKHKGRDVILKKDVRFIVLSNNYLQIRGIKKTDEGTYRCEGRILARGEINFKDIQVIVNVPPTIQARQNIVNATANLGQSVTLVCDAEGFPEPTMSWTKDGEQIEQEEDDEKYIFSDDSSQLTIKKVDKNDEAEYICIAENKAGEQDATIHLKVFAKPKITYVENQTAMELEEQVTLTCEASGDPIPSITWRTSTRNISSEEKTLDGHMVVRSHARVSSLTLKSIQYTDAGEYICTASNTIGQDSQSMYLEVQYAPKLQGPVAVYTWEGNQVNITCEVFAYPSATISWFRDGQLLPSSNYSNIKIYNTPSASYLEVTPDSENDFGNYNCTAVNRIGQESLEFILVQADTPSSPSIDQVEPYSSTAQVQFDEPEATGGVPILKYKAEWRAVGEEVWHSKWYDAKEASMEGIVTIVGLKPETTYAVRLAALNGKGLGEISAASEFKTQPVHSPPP
T3 sequence (P02769 25-607 limits assumed): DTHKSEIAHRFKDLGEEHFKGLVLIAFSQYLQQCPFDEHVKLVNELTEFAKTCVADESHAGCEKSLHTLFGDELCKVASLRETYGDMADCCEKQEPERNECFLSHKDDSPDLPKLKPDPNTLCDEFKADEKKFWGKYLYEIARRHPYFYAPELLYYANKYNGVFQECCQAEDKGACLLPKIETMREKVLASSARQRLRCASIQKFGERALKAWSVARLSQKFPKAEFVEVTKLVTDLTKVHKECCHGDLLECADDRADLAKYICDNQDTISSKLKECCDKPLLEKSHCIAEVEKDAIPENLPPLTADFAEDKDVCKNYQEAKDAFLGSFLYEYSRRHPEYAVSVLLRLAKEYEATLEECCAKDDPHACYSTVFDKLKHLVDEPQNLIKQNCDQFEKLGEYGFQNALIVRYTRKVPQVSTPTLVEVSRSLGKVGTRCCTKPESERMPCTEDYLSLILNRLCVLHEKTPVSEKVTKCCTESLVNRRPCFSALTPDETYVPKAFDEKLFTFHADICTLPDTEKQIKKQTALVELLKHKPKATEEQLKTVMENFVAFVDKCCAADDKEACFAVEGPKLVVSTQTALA
Sequence of rhTLR4 (C-terminal His tag) (O00206 24-631 limits assumed): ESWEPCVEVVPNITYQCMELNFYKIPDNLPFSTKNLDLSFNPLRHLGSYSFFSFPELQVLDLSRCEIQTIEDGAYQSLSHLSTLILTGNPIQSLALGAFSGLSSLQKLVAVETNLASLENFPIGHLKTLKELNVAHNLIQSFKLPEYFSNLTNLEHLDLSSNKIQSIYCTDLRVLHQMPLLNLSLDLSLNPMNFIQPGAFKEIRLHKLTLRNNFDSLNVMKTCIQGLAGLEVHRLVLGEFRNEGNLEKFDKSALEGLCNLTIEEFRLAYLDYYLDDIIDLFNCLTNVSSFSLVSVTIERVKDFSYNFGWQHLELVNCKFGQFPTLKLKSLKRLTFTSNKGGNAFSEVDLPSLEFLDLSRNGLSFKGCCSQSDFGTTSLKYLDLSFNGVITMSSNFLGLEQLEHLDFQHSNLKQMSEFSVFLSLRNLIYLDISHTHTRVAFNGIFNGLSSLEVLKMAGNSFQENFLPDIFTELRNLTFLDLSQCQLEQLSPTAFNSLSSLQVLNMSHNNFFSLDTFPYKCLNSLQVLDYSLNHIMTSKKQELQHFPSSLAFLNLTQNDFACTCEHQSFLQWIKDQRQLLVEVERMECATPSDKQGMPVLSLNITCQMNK

B1: XT-H3 (antibody, mouse IgG1, V domains shown)
VH: QVQLQQPGSELVRPGASVKLSCKTSGYTFTNYWMHWVKQRHGQGLEWIGNLYPGSGRTNYDEKFKSKVTLTEDTSSSTAYMHLSNLTSEDSAVYYCTSLRRGFVYWGQGTLVTVSA
VL: NIVMTQSPEYMSMSFGERVTLTCKASENVGSYVSWYQQKSEQSPKLLIYGASNRYTGVPDRFTGSGSATDFTLTITSVQAEDLADYHCGQTYTYPYTFGGGTKLEIK
notes: also called 1hRAGEP3/18
For B1, the binding result in assay [1] is “binds”; with human RAGE, full length it was “binds”.

B2: XT-H2 VL-VH ScFv construct (scFv)
scFv: DVVLTQTPLSLPVNIGDQASISCKSTKSLLNSDGFTYLDWYLQKPGQSPQLLIYLVSDRFSGVPDRFSGSGSGTDFTLTISRVEAEDLGVYYCFQSNSLPLTFGSGTKLEIKDGGGSGGGGSGGGGSSQVQLQQSGAELAKPGASVKMSCKASGYTFTTYWMHWVKQRPGQGLYWIGYINPSTGYTEYNQKFKDKATLTADKSSSTAYMQLSSLTSEDSAVYYCARWAGYTIDYWGQGTSVTVSS
notes: Tags (Flag when translated in vitro, His when made in E. coli) are inferred from the detection antibodies
Regarding B2, the binding result in assay [2] was “binds”; with BSA, “no binding”.

B3: XT-M4-hVH-V2.0-2m/hVL-V2.10 (antibody, V domains shown)
VH: EVQLVESGGGLVQPGGSLRLSCAASGFTFNNYWMTWVRQAPGKGLEWVASIDNSGDNTYYPDSVKDRFTISRDNAKNSLYLQMNSLRAEDTAVYYCARGGDITTGFDYWGQGTLVTVSS
VL: DIQMTQSPSSLSASVGDRVTITCRASQDVGIYVNWFQQKPGKAPKRLIYRATNLADGVPSRFSGSGSGTDFTLTISSLQPEDFATYYCLEFDEHPLTFGGGTKVEIK
notes: '2m' is not explained; also called XT-M4-hVH-2.0-2m/hVL-V2.10
Consider B3, for which the OD450 in [3] was found to be 3.81; in the assay with rhVCAM-1, 0.01; with rhICAM-1-Fc, 0.007; in [4], 0.001; with rhNCAM-1 it was 0.004; with rhB7-H1-Fc, 0.01. Further, the OD450 with mLox1-Fc came out at 0.016; with hLox1-Fc, 0.007.

B4: XT-M4-hVH-V2.0-2m/hVL-V2.11 (antibody, V domains shown)
VH: B3 VH
VL: B3 VL with K45R, G66R
notes: '2m' is not explained
In the case of B4, the OD450 in assay [3] turned out to be 3.83; with rhVCAM-1, 0.012; in the assay with rhICAM-1-Fc, 0.004; in assay [4] it was 0.003; with rhNCAM-1 it was 0.011; with rhB7-H1-Fc, 0.009. Also, the OD450 with mLox1-Fc is 0.01; with hLox1-Fc, 0.022.

B5: XT-M4 VL-VH ScFv construct (scFv)
scFv: DIQMTQSPSSMSVSLGDTITITCRASQDVGIYVNWFQQKPGKSPRRMIYRATNLADGVPSRFSGSRSGSIYSLTISSLESEDVADYHCLEFDEHPLTFGSGTKVEIKDGGGSGGGGSGGGGSSEVQLVESGGGLVQPGRSLKLSCVVSGFTFNNYWMTWIRQTPGKGLEWVASINNSGDNTYYPDSVKDRFTISRDNAKSTLYLQMNSLRSEDTATYYCTRGGDITTGFDYWGQGVMVTVSS
notes: Tags (Flag in vitro, His in E. coli) inferred from detection
Take B5: the figures for the binding result (in [2]; in the assay with BSA) were “binds” and “no binding”, respectively.

B6: XT-H5 (antibody, mouse IgG1, V domains shown)
VH: EVLLQQSGPELVKPGASVKISCKASGYTFTDYNMDWVKQSHGKSLEWIGDINPDNGGTIYKQKFKGKATLTVDKSSSTAYMELRSLTSEDTAVYYCTTHDHYYYALDYWGQGTSVTVSS
VL: not shown
notes: also called 1hRAGEP3/55
On to B6, for which the binding result with baboon RAGE is “binds”. Moreover, in assay [5], the Ka is 3.69e+08 M⁻¹; the equilibrium dissociation constant (Kd) (usually the concentration at which binding is half-saturated) stood at 2.71 nM; the koff (commonly a measure of how fast the partners let go of each other) amounted to 0.00451 s⁻¹; the kon – broadly, the second-order rate constant of association – worked out at 1.66e+06 M⁻¹ s⁻¹.
